Measurements: PMC12126490 (2025)

Molecular target: chromoshadow domain of HP1α (HP1αCSD, aa 109–185 of HP1α) (human, UniProt P45973 109-185)
Sequence (P45973 109-185): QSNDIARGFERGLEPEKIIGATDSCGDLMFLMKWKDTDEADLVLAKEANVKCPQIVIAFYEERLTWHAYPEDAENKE

- Kd: 1600 nM
Binder: RKVPRVSLERL [HP1 box-containing KAP1 peptide (KAP1_(Hbox), aa 483–493 of KAP1)]
